The values below come from PMC7580981.

The target in this assay is IBV polymerase trimeric complex (Pol3): PA-His, PB1, PB2 (influenza B virus). The experiment in a line: SPR. The following applies: natural protein.

In turn, chicken ANP32A, purified (GST cleaved) yielded a Kd of 133 nM.
